Series [1] concerns the molecule itself. The series can be described thus: SEC.
Series [2] deals with the molecule itself. Put plainly: SEC. The source holds these as a separate data set. On the technique in general: Size exclusion chromatography separates by hydrodynamic size, large species first.

Where two headings read alike, the source gives them in different places.

B1: Recombinant wild-type human αB-crystallin (natural protein, UniProt P02511 1-175, looked up)
chain: MDIAIHHPWIRRPFFPFHSPSRLFDQFFGEHLLESDLFPTSTSLSPFYLRPPSFLRAPSWFDTGLSEMRLEKDRFSVNLDVKHFSPEELKVKVLGDVIEVHGKHEERQDEHGFISREFHRKYRIPADVDPLTITSSLSSDGVLTVNGPRKQVSGPERTIPITREEKPAVTAAPKK
As to B1, the binding result in “SEC [1]” was “binds”.

B2: W9F/W60F αB-Crys (natural protein, human, UniProt P02511 1-175, looked up)
chain: MDIAIHHPFIRRPFFPFHSPSRLFDQFFGEHLLESDLFPTSTSLSPFYLRPPSFLRAPSFFDTGLSEMRLEKDRFSVNLDVKHFSPEELKVKVLGDVIEVHGKHEERQDEHGFISREFHRKYRIPADVDPLTITSSLSSDGVLTVNGPRKQVSGPERTIPITREEKPAVTAAPKK
Regarding B2, the binding result in the series “SEC [2]” is reported as “binds”.

Source of the values: PMC3072757 (Journal of molecular biology, 2010).
